Measurements reported in patent US20110142812A1 (STC UNM, published 2011).

Assays:
human FcγRI = target: T1, human FcγRI (human, UniProt P12314 16-292, limits assumed); experiment: surface plasmon resonance, human FcγR
T1 construct: also called CD64

[1] = target: T2, mouse FcγRI on macrophages (mouse, UniProt P26151 25-404); experiment: two-color flow cytometry on mouse peritoneal macrophages (FcγRIIb-/-), FITC-2C10 detection
T2 construct: whole, on cells; The receptor is assigned by using macrophages from knockout mice; Other receptors may be present on these cells; also called FcγRI on mouse macrophages (from FcγRIIb-/- mice)
T2 sequence (looked up): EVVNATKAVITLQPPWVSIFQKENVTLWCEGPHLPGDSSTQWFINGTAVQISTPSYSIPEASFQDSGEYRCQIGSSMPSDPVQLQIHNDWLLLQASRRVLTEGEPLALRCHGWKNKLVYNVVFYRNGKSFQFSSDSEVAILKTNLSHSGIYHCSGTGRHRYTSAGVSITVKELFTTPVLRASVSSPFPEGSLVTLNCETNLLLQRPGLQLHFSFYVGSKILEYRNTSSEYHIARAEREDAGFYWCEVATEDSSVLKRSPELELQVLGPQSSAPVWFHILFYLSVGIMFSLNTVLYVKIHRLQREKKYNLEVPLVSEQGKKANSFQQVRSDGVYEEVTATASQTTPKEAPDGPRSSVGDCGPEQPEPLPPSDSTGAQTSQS

T1 sequence (P12314 16-292 limits assumed): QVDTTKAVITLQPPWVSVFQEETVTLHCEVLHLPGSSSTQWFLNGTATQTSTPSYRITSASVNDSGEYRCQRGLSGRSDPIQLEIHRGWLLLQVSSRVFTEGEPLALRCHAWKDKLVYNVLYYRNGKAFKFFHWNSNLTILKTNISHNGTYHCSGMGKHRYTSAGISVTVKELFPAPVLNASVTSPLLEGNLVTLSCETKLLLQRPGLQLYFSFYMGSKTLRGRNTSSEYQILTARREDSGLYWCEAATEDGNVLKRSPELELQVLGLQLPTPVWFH

binding result (human FcγRI): binds | binding result [1]: binds
B1: Y175L CRP (recombinant mutant C-reactive protein in which tyrosine 175 is replaced by leucine) (ligand)
chain: QTDMSRKAFVFPKESDTSYVSLKAPLTKPLKAFTVCLHFYTELSSTRGYSIFSYATKRQDNEILIFWSKDIGYSFTVGGSEILFEVPEVTVAPVHICTSWESASGIVEFWVDGKPRVRKSLKKGYTVGAEASIILGQEQDSFGGNFEGSQSLVGDIGNVNMWDFVLSPDEINTILLGGPFSPNVLNWRALKYEVQGEVFTKPQLWP
notes: also called CRP mutant Y175L; recombinant mutant CRP (Y175L)
